Experimental data reported in PMC7809020.

Columns and labels:
[1] = molecular target: ATM (biolayer interferometry) (UniProt Q13315); assay: BLI; in vitro; SPOP peptide bound to ATM, measured by diffracted light wavelength
[2] = molecular target: ATM (biolayer interferometry) (UniProt Q13315); assay: BLI

Chain of SPOP wild-type peptide (O43791 whole entry, looked up, tested part not stated): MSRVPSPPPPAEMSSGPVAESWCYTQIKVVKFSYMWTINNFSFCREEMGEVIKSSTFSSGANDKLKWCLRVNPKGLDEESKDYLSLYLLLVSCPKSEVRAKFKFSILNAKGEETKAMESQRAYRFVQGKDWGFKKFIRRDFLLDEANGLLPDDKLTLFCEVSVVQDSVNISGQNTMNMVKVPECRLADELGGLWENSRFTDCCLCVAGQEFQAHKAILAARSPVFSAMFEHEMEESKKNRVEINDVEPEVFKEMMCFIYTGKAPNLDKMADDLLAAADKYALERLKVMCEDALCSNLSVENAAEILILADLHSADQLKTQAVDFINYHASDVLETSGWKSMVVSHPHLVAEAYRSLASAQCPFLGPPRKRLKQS

Substance | amount bound relative to the mutant peptide [1] | Kd [2]
SPOP wild-type peptide | 2 fold | 
SPOP wild-type peptide (from UniProt O43791) |  | 0.0698 µM
SPOP S119N mutant peptide (from UniProt O43791) |  | 45.5 µM
